We go through 20 molecules from patent US20110262445A1 (CEPHALON AUSTRALIA, published 2011).

Where a chain is given by its changes, count along the chain named.

Broadly, the Kd is the constant that tells how readily two partners part at equilibrium. Low values mean a tighter complex, high ones a looser complex. A word on the koff: it is the rate constant with which the complex falls apart. A low value points to slow dissociation. The kon is a measure of how fast the partners come together. A lower kon goes with slow association.

Sequences and labels used below:
T1: human IL-23 (human, UniProt P29460 23-328; Q9NPF7 20-189)
T1 construct: Recombinant (Ebioscience); HIS-tagged in flow cytometry, biotinylated in some assays; also called hIL-23; rhIL-23
T1 sequence 1: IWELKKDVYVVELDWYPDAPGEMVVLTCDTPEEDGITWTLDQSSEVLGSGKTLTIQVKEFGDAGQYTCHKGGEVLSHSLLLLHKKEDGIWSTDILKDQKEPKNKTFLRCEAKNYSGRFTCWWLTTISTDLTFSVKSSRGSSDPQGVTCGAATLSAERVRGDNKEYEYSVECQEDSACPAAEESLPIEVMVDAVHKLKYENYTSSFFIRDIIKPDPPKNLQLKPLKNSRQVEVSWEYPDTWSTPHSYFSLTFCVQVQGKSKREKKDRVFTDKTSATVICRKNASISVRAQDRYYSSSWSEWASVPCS
T1 sequence 2: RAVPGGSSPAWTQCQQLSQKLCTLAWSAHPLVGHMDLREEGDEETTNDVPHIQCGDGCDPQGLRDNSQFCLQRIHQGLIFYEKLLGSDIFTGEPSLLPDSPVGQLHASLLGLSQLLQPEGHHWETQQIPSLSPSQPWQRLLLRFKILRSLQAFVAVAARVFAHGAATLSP

T2: human IL-12 (human, UniProt P29460 23-328; P29459 23-219)
T2 construct: Recombinant (Peprotech); FLAG-tagged IL-12 in the flow cytometry assays, biotinylated in the IL-12Rβ2 assay; also called hIL-12
T2 sequence 1: T1 sequence 1
T2 sequence 2: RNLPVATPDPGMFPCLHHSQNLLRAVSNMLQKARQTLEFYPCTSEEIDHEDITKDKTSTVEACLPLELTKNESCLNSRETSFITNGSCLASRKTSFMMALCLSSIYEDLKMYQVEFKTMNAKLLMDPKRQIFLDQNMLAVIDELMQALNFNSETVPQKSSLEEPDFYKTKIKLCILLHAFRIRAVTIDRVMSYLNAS

B1: Antibody 93 (antibody, human IgG1, kappa, V domains shown)
VH: EVQLVQSGAEVKKPGATVKISCKASGYTFSDYYLHWVRQAPEKGLEWMGWIDPENGDTEYAPKFQGRVTITADTSTDTGYLELSSLRSEDTAVYYCNANKELRYFDVWGQGTLVTVSS
VL: DIQMTQSPSSVSASVGDRVTITCRASQSISINLHWYQQKPGKAPKLLIYFASQSISGVPSRFSGSGSGTDFSLTINSLQPEDFARYYCQQSNSFPLTFGGGTKVEIKR
B2: Antibody 101 (antibody, human IgG1, kappa)
heavy chain: not shown
light chain: DIQMTQSPSSVSASVGDRVTITCRASQSISINLHWYQQKPGKAPKLLIYFASQSISGVPSRFSGSGSGTDFSLTINSLQPEDFARYYCQQSNSFPLTFGGGTKVEIKRTVAAPSVFIFPPSDEQLKSGTASVVCLLNNFYPREAKVQWKVDNALQSGNSQESVTEQDSKDSTYSLSSTLTLSKADYEKHKVYACEVTHQGLSSPVTKSFNRGEC
B3: Antibody 100 (antibody, human IgG1, kappa)
heavy chain: not shown
light chain: B2 light chain
B4: Antibody 99 (antibody, human IgG1, kappa)
heavy chain: not shown
light chain: B2 light chain
B5: Antibody 98 (antibody, human IgG1, kappa)
heavy chain: not shown
light chain: B2 light chain
B6: Antibody 103 (antibody, human IgG1, kappa)
heavy chain: not shown
light chain: B2 light chain
B7: Antibody 97 (antibody, human IgG1, kappa)
heavy chain: not shown
light chain: B2 light chain
B8: Antibody 94 (antibody, human IgG1, kappa, V domains shown)
VH: B1 VH with A98R
VL: B1 VL
B9: Antibody 102 (antibody, human IgG1, kappa)
heavy chain: not shown
light chain: B2 light chain
B10: Antibody 180 (antibody, human IgG1, kappa, V domains shown)
VH: B1 VH with F29L, Y60S, N97A
VL: B1 VL with P80T, R85T
B11: Antibody 182 (antibody, human IgG1, kappa, V domains shown)
VH: B1 VH with F29L, Y60H, N97A
VL: B1 VL with P80T, R85T
B12: Antibody 181 (antibody, human IgG1, kappa, V domains shown)
VH: B1 VH with Y60H, N97A
VL: B1 VL with P80T, R85T
B13: Antibody 177 (antibody, human IgG1, kappa, V domains shown)
VH: B1 VH with Y60S, N97A
VL: B1 VL with P80T, R85T
B14: Antibody 205 (antibody, human IgG1, kappa, V domains shown)
VH: QVQLVQSGAEVKKPGASVKVSCKASGYTFTDYYLHWVRQAPGRGLEWMGWIDPENGDTEYAPKFQGRVTMTTDTSTSTAYMELRSLRSDDTAVYYCAANKELRYFDVWGQGTMVTVSS
VL: EIVMTQSPATLSVSPGERATLSCRASQSISINLHWYQQKPGQAPRLLIYFASQSISGIPARFSGSGSGTEFTLTISSLQSEDFAVYYCQQSNSFPLTFGGGTKVEIKR
B15: Antibody 194 (antibody, human IgG1, kappa, V domains shown)
VH: B14 VH with F29L, R43Q, Y60S
VL: B1 VL with P80T, R85T
B16: Antibody 195 (antibody, human IgG1, kappa, V domains shown)
VH: B14 VH with R43Q, Y60H
VL: B1 VL with P80T, R85T
B17: Antibody 190 (antibody, human IgG1, kappa, V domains shown)
VH: B14 VH with R43Q, A97N
VL: B1 VL with P80T, R85T
B18: Antibody 198 (antibody, human IgG1, kappa, V domains shown)
VH: B14 VH with T28A, R43Q
VL: B1 VL with P80T, R85T
B19: Antibody 192 (antibody, human IgG1, kappa, V domains shown)
VH: B14 VH with F29L, R43Q
VL: B1 VL with P80T, R85T
B20: Antibody 193 (antibody, human IgG1, kappa, V domains shown)
VH: B14 VH with R43Q, Y60S
VL: B1 VL with P80T, R85T

In the first assay the target is T1, human IL-23. Kind of assay: ELISA, coated IL-23. The method, boiled down:
(§1)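 Each value is an absorbance measuring binding. Plates (Maxisorp) carried cytokine coated at 1 μg/mL in carbonate buffer pH 9.6 overnight at 4° C, were blocked with 1% BSA in PBS for 1 hour at 25° C, and received antibody titrations for 1 hour at 25° C. Detection used goat anti-human IgG or anti-murine immunoglobulin HRP at 1:2000 for 1 hour, then TMB stopped with 1M HCl, with absorbance taken at 450 nm (reference 620 nm).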
On the technique in general: ELISA stands for enzyme-linked immunosorbent assay.
B1: the binding result is on record as “binds”.

For the molecule B2, the binding result is on record as “binds”.

Regarding B3, the binding result is “binds”.

With B4, the binding result is listed as “binds”.

B5: the binding result is given as “binds”.

Regarding B6, the binding result was “binds”.

As for B7, the binding result is recorded as “binds”.

For the molecule B8, the binding result is “binds”.

As for B9, the binding result is reported as “binds”.

The target in another assay is T1, human IL-23. In words: SPR, IgG on Protein A. As for the experimental part: (§2) Using SPR technology the kₐ and kd and the KD of various humanized antibodies was determined.
(§3) Using a SPR 3000, Protein A was immobilized onto FC1 and FC2 (or alternatively FC3 and FC4) of a CM5 research grade sensor chip using amine coupling, giving approximately […] RU. FC1 was used a blank throughout the experiments. The experiments were run in HBS-P buffer (SPR). At a flow rate of 20 μl/min, 20 μl of 5 μg/mL of antibody was passed over FC2. IL-12, IL-23 or IL-12p40 (Peprotech) were passed over the surface of FC1 and FC2 at concentrations ranging from 66 nM to 2 nM. Regeneration of the surface was performed using 10 mM Glycine, pH 1.0. The sensorgram data from FC2 was subtracted from FC1 and a buffer only control. The curves were fitted using a 1:1 Langmuir equation to generate the kd, ka and KD values. All curves were fitted with a χ² of less then 2.0 where possible.
Take B10: the Kd is 0.0297 nM, the koff was found to be 9.27e-05 s⁻¹ and the kon was 3.12e+06 M⁻¹ s⁻¹.

With B11, binding was put at a Kd of 0.0246 nM, the koff turned out to be 0.000129 s⁻¹ and the kon came out at 5.27e+06 M⁻¹ s⁻¹.

In turn, B12 had a Kd of 0.0424 nM, a koff of 0.000173 s⁻¹ and a kon of 4.09e+06 M⁻¹ s⁻¹.

Molecule B13 gave a Kd of 0.0373 nM, a koff of 0.000128 s⁻¹ and a kon of 3.43e+06 M⁻¹ s⁻¹.

Take B14: the Kd was 0.0862 nM, the koff turned out to be 0.000415 s⁻¹ and the kon worked out at 4.81e+06 M⁻¹ s⁻¹.

B15: the Kd was found to be 0.041 nM, the koff is 0.000122 s⁻¹ and the kon worked out at 2.99e+06 M⁻¹ s⁻¹.

B16 yielded a Kd of 0.05 nM, a koff of 0.000202 s⁻¹ and a kon of 4.03e+06 M⁻¹ s⁻¹.

In the case of B17, binding was characterised by a dissociation constant (Kd) of 0.142 nM, the koff turned out to be 0.000609 s⁻¹ and the on-rate constant (kon) came to 4.28e+06 M⁻¹ s⁻¹.

With B18, the Kd turned out to be 0.0877 nM, the koff amounted to 0.000409 s⁻¹ and the kon is 4.65e+06 M⁻¹ s⁻¹.

As for B19, the Kd is 0.0794 nM, the koff is 0.000211 s⁻¹ and the kon is 2.66e+06 M⁻¹ s⁻¹.

For the next assay, the target named is T2, human IL-12. In words: SPR, IgG on Protein A. Here is the method: as §2, §3
B10 showed a Kd of 0.0325 nM, a koff of 0.000173 s⁻¹ and a kon of 5.31e+06 M⁻¹ s⁻¹.

Regarding B11, the dissociation constant (Kd) is 0.0344 nM, the koff amounted to 0.000214 s⁻¹ and the kon is 6.23e+06 M⁻¹ s⁻¹.

Molecule B12 returned a Kd of 0.0681 nM, a koff of 0.000244 s⁻¹ and a kon of 3.57e+06 M⁻¹ s⁻¹.

Molecule B13 yielded a dissociation constant (Kd) of 0.046 nM, a koff of 0.000212 s⁻¹ and a kon of 4.61e+06 M⁻¹ s⁻¹.

For B14, the Kd is 0.157 nM, the koff was 0.000581 s⁻¹ and the kon is 3.7e+06 M⁻¹ s⁻¹.

Take B15: binding was characterised by a dissociation constant (Kd) of 0.0927 nM, the koff amounted to 0.000194 s⁻¹ and the kon was determined as 2.09e+06 M⁻¹ s⁻¹.

B16 gave a Kd of 0.103 nM, a koff of 0.000274 s⁻¹ and a kon of 2.65e+06 M⁻¹ s⁻¹.

Take B17: the affinity, expressed as Kd, was 0.217 nM; the koff was found to be 0.00084 s⁻¹; the kon is 3.86e+06 M⁻¹ s⁻¹.

The molecule B18 returned a Kd of 0.158 nM, a koff of 0.000594 s⁻¹ and a kon of 3.75e+06 M⁻¹ s⁻¹.

In turn, B19 displayed a Kd of 0.0855 nM, a koff of 0.000356 s⁻¹ and a kon of 4.16e+06 M⁻¹ s⁻¹.

Molecule B20 returned a Kd of 0.0794 nM, a koff of 0.000206 s⁻¹ and a kon of 2.6e+06 M⁻¹ s⁻¹.

The next assay has as its target T2, human IL-12. In words: ELISA, coated IL-12. A digest of the protocol: as §1
B1: the binding result is listed as “binds”.

With B2, the binding result is “binds”.

On to B3, for which the binding result is recorded as “binds”.

As for B4, the binding result is on record as “binds”.

B5: the binding result was “binds”.

B6: the binding result was “binds”.

Turning to B7, the binding result is “binds”.

Consider B8, for which the binding result is on record as “no binding (tested: not given)”.

Take B9: the binding result is recorded as “binds”.
